Test [1] has as its target T1, Human TLR4/MD-2 complex (human, UniProt O00206 24-631; Q9Y6Y9 19-160).
T1 construct: Toll-like receptor 4 (TLR4), human, chain of the bought TLR4/MD-2 complex; Myeloid Differentiation factor 2 (MD-2), human, chain of the bought TLR4/MD-2 complex; No catalogue number printed; also called TLR4/MD-2 receptor; source: bought: R&D Systems
Briefly: SPR; Biacore T200; TLR4/MD-2 amine-coupled on CM5 (~1200 RU); HMGB1 isoforms injected at 30 μL/min for 60 s, 25 °C, dissociation 1 min; HBS-EP pH 7.4 (10 mM hepes, 150 mM NaCl, 3 mM EDTA, 0.05% P20); 1:1 binding supposed; apparent KD. The settings on record: both partners purified.

In test [2] the target is T2, human TLR4 (human, UniProt O00206 24-631).
T2 construct: Toll-like receptor 4 (TLR4), recombinant human (rhTLR4); No catalogue number printed; also called rhTLR4; Toll-like receptor 4; source: bought: R&D Systems
The experiment in a line: SPR; Biacore T200; rhTLR4 amine-coupled on CM5 (~800 RU); HMGB1 isoforms injected at 30 μL/min for 60 s, 25 °C, dissociation 1-2 min; HBS-EP pH 7.4; 1:1 binding supposed; apparent KD. The settings on record: both partners purified.

T1 sequence (O00206 24-631, chain 1 of 2): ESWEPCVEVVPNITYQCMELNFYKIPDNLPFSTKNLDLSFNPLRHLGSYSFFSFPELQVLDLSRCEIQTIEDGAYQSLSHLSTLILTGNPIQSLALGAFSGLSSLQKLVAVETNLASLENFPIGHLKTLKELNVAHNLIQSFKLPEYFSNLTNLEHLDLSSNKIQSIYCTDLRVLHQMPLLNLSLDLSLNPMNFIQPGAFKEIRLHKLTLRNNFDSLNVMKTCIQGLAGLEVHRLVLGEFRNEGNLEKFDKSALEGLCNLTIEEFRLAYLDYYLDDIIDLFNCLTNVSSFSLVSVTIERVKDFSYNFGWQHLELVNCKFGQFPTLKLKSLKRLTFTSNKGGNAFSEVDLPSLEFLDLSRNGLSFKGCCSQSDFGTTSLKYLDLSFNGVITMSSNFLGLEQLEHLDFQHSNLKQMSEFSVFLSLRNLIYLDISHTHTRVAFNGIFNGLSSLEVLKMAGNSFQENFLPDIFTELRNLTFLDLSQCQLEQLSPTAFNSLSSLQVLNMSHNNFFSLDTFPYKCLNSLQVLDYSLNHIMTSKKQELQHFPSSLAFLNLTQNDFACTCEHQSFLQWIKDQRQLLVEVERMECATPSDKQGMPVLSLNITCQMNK
T1 sequence (Q9Y6Y9 19-160, chain 2 of 2): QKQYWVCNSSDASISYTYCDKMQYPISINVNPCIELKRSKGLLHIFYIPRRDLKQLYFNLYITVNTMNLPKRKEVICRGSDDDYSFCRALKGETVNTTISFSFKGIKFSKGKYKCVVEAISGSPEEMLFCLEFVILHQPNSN
T2 sequence (O00206 24-631): as the sequence (O00206 24-631, chain 1 of 2) above

B1: disulfide HMGB1 (High Mobility Group Box 1) (natural protein, UniProt P63159 1-215, looked up)
chain: MGKGDPKKPRGKMSSYAFFVQTCREEHKKKHPDASVNFSEFSKKCSERWKTMSAKEKGKFEDMAKADKARYEREMKTYIPPKGETKKKFKDPNAPKRPPSAFFLFCSEYRPKIKGEHPGLSIGDVAKKLGEMWNNTAADDKQPYEKKAAKLKEKYEKDIAAYRAKGKPDAAKKGVVKAEKSKKKKEEEDDEEDEEDEEEEEEEEDEDEEEDDDDE
modifications: disulfide bond between C23 and C45
notes: High Mobility Group Box 1 (HMGB1), single 215-amino acid polypeptide; neither is stated here; also called disulfide HMGB1 isoform; intact HMGB1; source: E. coli, purified to homogeneity
B1: in test [1], the Kd was found to be 0.42 ± 0.01 µM, the “fold faster association rate than the other isoforms” value was 10 fold and the kon stood at 286000 M⁻¹ s⁻¹.

B2: DTT reduced HMGB1 (natural protein, UniProt P63159 1-215, looked up)
chain: MGKGDPKKPRGKMSSYAFFVQTCREEHKKKHPDASVNFSEFSKKCSERWKTMSAKEKGKFEDMAKADKARYEREMKTYIPPKGETKKKFKDPNAPKRPPSAFFLFCSEYRPKIKGEHPGLSIGDVAKKLGEMWNNTAADDKQPYEKKAAKLKEKYEKDIAAYRAKGKPDAAKKGVVKAEKSKKKKEEEDDEEDEEDEEEEEEEEDEDEEEDDDDE
modifications: cysteines reduced with DTT (no C23-C45 disulfide)
notes: High Mobility Group Box 1 (HMGB1), 215 amino acids, reduced form; Prepared as in Yang et al. 2012 (cited); Same protein as m1 in another redox state; source: E. coli, purified to homogeneity, then reduced with DTT
Turning to B2, the Kd in test [1] came out at 3.93 ± 0.01 µM.

B3: non-oxidizable HMGB1 3S mutant (natural protein, UniProt P63159 1-215, looked up)
chain: MGKGDPKKPRGKMSSYAFFVQTSREEHKKKHPDASVNFSEFSKKSSERWKTMSAKEKGKFEDMAKADKARYEREMKTYIPPKGETKKKFKDPNAPKRPPSAFFLFSSEYRPKIKGEHPGLSIGDVAKKLGEMWNNTAADDKQPYEKKAAKLKEKYEKDIAAYRAKGKPDAAKKGVVKAEKSKKKKEEEDDEEDEEDEEEEEEEEDEDEEEDDDDE
notes: HMGB1 in which all three cysteines (C23, C45, C106) are replaced by serines; Commercial protein; also called 3S mutant HMGB1; source: provided by HMGBiotech (Milan, Italy)
As to B3, the Kd came to 4.2 ± 0.09 µM in test [2] and 3.02 ± 0.02 µM in test [1].

One may read the kon as a measure of how fast the partners come together.

The values are drawn from paper PMC6085627, “Exploring the biological functional mechanism of the HMGB1/TLR4/MD-2 complex by surface plasmon resonance” (Molecular Medicine, 2018).
